Source: paper PMC3814058 (Bioscience Reports, 2013)
No end group written: not given here.

B1: GFP–STIM1K+LC (GFP–STIM1K with a leucine and cysteine insertion after residue 666), oxidized dimer (domain or fragment, human, UniProt Q13586-1 662-685, looked up)
chain: GEETDLCSSPGRKKFPLKIFKKPLKK
modifications: not fully specified; inserted cysteine oxidized (84% dimerization)
notes: STIM1, human, residues 662–685 with Leu and Cys inserted after Asp666; The methods describe only the plasmid of the +LC–P675A–P682A form (pMS781); also called GFP–STIM1K dimer; oxidized GFP–STIM1K+LC; source: E. coli BL21 (DE3), purified, dialysed overnight against DTT-free HK buffer; not shown: GFP, N-terminal, kept
B2: GFP–STIM1K+LC–P675A–P682A, oxidized dimer (domain or fragment, human, UniProt Q13586-1 662-685, looked up)
chain: {GFP}-GEETDLCSSPGRKKFALKIFKKALKK
modifications: also: disulfide-linked dimer via inserted cysteine
notes: STIM1, human, residues 662–685 with Leu and Cys inserted after Asp666, P675A and P682A; also called pMS781; GFP-STIM1K dimer with both prolines mutated; source: E. coli BL21 (DE3), purified, dialysed overnight against DTT-free HK buffer; not shown: GFP, N-terminal, kept

Molecular target: the molecule itself
Assay: non-reducing SDS/PAGE; overnight dialysis at 4°C against non-reducing (DTT-free) HK buffer, non-reducing sample buffer, 65°C 5 min, Coomassie stain; disulphide-linked dimer

Protein	stoichiometry N
B1	2
B2	2
